The values below come from article doi:10.1101/2020.09.01.278291 (bioRxiv, 2020).

In this test the target is LRH-1 ligand binding domain (LBD), residues 299-541, His tag cleaved (human, UniProt O00482 299-541). Put plainly: crystal structure.
Sequence of LRH-1 ligand binding domain (LBD), residues 299-541, His tag cleaved (O00482 299-541): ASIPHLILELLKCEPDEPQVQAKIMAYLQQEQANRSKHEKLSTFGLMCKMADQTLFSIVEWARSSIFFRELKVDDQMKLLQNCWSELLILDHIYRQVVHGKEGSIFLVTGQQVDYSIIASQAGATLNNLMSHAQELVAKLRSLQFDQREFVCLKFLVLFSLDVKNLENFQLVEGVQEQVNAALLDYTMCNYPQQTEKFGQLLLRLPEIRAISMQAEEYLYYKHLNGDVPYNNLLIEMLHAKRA

As to KENALLRYLLDK [Tif2 peptide (transcriptional intermediary factor 2 coregulator peptide)], the binding result is listed as “binds”.
